This note sets out measurements from paper PMC4631479, “The structure of the GemC1 coiled coil and its interaction with the Geminin family of coiled-coil proteins” (Acta Crystallographica Section D: Biological Crystallography, 2015).

The data set deals with the molecule itself. The data set is described as follows: SEC-MALS; Superdex 75 HR 10/30 with miniDAWN light-scattering and refractive-index detectors; 100 ul of purified tGemC1 dimer at ~2.0 mg/ml injected. (SEC sorts molecules by how far they enter the pores of the column.)

B1: tGemC1^L123,130E (GemC1 coiled-coil domain variant, residues 64-146, L123E and L130E) (domain or fragment, human, UniProt A6NCL1 64-146, looked up)
chain: DSNFPLPDLCSWEEAQLSSQLYRNKQLQDTLVQKEEELARLHEENNHLRQYLNSALVKCEEEKAKKELSSDEFSKAYGKFRKG
notes: Geminin coiled-coil domain-containing protein 1 (GemC1), human, UniProt A6NCL1, residues 64-146, with L123E and L130E; codon-optimized synthetic gene; The His tag is called cleavable; also called tGemC1 homodimer; tGemC1-tGemC1; source: expressed from pETNKI-His-3CLIC-kan, purified (IMAC, size-exclusion chromatography)
As a reminder, the stoichiometry N is a count of units in the complex or per binding partner. As to B1, the “stoichiometry N” value was determined as 2.
